The subject of this data set is SDM-25.

MMP9 protease, sequence (chain, as listed by the source): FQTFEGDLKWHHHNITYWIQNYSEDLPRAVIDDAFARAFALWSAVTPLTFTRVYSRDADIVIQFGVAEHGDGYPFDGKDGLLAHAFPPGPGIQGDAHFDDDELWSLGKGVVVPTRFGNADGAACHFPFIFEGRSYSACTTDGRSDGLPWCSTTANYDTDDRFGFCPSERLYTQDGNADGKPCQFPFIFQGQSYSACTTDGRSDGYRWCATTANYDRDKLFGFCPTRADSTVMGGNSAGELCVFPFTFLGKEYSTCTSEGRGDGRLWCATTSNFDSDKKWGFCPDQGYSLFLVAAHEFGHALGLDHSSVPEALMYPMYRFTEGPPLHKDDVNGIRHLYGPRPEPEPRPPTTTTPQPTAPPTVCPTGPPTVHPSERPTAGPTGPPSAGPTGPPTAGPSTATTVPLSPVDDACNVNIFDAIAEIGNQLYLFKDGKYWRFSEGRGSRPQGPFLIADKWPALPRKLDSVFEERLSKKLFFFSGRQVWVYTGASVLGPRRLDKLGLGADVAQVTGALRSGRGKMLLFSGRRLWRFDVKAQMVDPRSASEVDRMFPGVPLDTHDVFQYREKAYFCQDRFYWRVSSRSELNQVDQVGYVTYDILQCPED

In the case of MMP9 protease, the “fluorescence emission spectra (630 nm excitation) before and after protease treatment; FRET loss on cleavage” value is “After cleavage, Cy7 no longer quenches Cy5, resulting in an increase of the 670 nm Cy5 emission peak and a reduction of the Cy7 re-emission at 780 nm”.

The values are drawn from patent US20200150041.
